B1: mSHARPIN_(163–301) [mouse] / GST-mHOIP_(466–630) [mouse] (parent)
chain 1: SSGNFKKEELATRLSQAIAGGDEKAAAQVAAVLAQHHVALNVQLMEAWFPPGPIRLQVTVEDATSVLSSSSSAHVSLKIHPHCSIAALQDQVFSEFGFPPAVQRWVIGRCLCMPERSLASYGVSQDGDPAFLYLLSAPR
chain 2: SCGDPEKQRQDKMRKEGLQLVSMIQEGETAGASPEEVFSALQYSGTEVPLQWLRSELSYVLEMVAELAGQQDPELGAFSCQEARKAWLDRHGNLDEAVEECVRARRRKVHELQSLGFGPKEGSLQALFQHGGDVARALTELQRQRLEPFHQRLWDRDPEPTPCWD

Variants of: B1
Assay: SPR
Settings: with GST-mHOIP_(466–630) [mouse]; response read at end of injection (about 185 s); GST-mHOIP D-UBA WT immobilized with anti-GST antibody; parent: 20; read off a plot

With chain 1 L14A I18A as the variant, how does the response read?
Its response is -20 RU.

From publication PMC6044281, “Cooperative Domain Formation by Homologous Motifs in HOIL-1L and SHARPIN Plays A Crucial Role in LUBAC Stabilization” (Cell reports, 2018)
